Residue numbers refer to the chain shown, from its start. One block for each binder: values may come before it.
Key:
[1] = target: T1, mouse CTLA4-Fc (Sino Biological) (mouse, UniProt P09793 36-162, limits assumed); assay: ELISA, luminescence: mouse CTLA4-Fc coated, 5-B07 mIgG2a titrated in 3-fold steps [contd.) E]
T1 construct: Bought reagent; also called mouse CTLA-4 protein; recombinant CTLA-4; not shown: Fc part of the bought fusion protein; not described

[2] = target: T2, mouse CTLA-4 on transfected cells (mouse, UniProt P09793 36-223); assay: flow cytometry on mCTLA-4-transfected cells, antibody titrated [contd.) I]
T2 construct: whole, on cells; also called mCTLA-4-transfected cells; mouse CTLA-4 transfected CHO cells

[3] = target: T1, mouse CTLA4-Fc (Sino Biological); assay: ligand-blocking ELISA: mouse CTLA4-Fc coated, antibody titrated, His-tagged mouse CD80 added and detected with anti-His-HRP [contd.) J, panel mCD80]
[4] = target: T1, mouse CTLA4-Fc (Sino Biological); assay: ligand-blocking ELISA: mouse CTLA4-Fc coated, antibody titrated, His-tagged mouse CD86 added and detected with anti-His-HRP [contd.) J, panel mCD86]
[5] = target: T3, human CTLA4-Fc (R&D Systems) (human, UniProt P16410 36-161); assay: ligand-blocking ELISA: human CTLA4-Fc coated, antibody titrated, His-tagged rhCD86 added and detected with anti-His-HRP [contd.) G, panel hCD86]
T3 construct: extracellular domain; Bought reagent; also called rhCTLA-4-Fc; hCTLA-4; not shown: Fc part of the bought fusion protein; not described

[6] = target: T4, human CTLA-4 protein (Sino Biological), soluble (human, UniProt P16410 36-162, limits assumed); assay: SPR (Biacore 3000); mAb captured by immobilised anti-human Fc, soluble human CTLA-4 injected (1.6 to 50 nM)
T4 construct: Analyte of the Biacore experiment; also called soluble human CTLA-4

[7] = target: T5, human CD28-Fc (R&D Systems) (human, UniProt P10747 19-152); assay: ELISA, luminescence: antigen coated, antibody titrated [contd.) E]
T5 construct: Bought reagent; also called human homologue CD28; not shown: Fc part of the bought fusion protein; not described

[8] = target: T1, mouse CTLA4-Fc (Sino Biological); assay: as above
[9] = target: T3, human CTLA4-Fc (R&D Systems); assay: as above
[10] = target: T4, human CTLA-4 protein (Sino Biological), …; assay: SPR (Biacore): antibody at 5 nM captured on immobilized anti-human Fc, human CTLA-4 protein injected at rising concentrations [contd.) C, upper panel]
[11] = target: T3, human CTLA4-Fc (R&D Systems); assay: by the legend: binding to immobilized recombinant hCTLA-4 protein as in FIG. 1E; 4-E03 purified from BT-001-infected MIA PaCa-2 cells; the y axis reads 'IgG binding (geomean; x10^3)' [contd.) G]
[12] = target: T3, human CTLA4-Fc (R&D Systems); assay: by the legend: binding to immobilized recombinant hCTLA-4 protein as in FIG. 1E; the y axis reads 'IgG binding (geomean; x10^3)' [contd.) G]
cmCTLA-4 = target: T6, cmCTLA-4 (Macaca fascicularis, UniProt G7PL88); assay: ELISA, luminescence: antigen coated, antibody titrated [contd.) E]
T6 construct: recombinant protein coated for ELISA; also called cynomolgus CTLA-4; cynomolgus monkey CTLA-4

[13] = target: T3, human CTLA4-Fc (R&D Systems); assay: ligand-blocking ELISA: human CTLA4-Fc coated, antibody titrated, His-tagged rhCD80 added and detected with anti-His-HRP [contd.) G, panel hCD80]

T3 sequence (P16410 36-161): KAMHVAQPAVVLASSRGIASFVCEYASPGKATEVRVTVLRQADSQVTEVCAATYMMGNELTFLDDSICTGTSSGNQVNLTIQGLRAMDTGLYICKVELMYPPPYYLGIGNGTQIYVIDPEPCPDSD
T6 sequence (G7PL88 entry or part of it): as the sequence (P16410 36-161) above, with S14N, I18T, L106M counted along it
T4 sequence (P16410 36-162 limits assumed): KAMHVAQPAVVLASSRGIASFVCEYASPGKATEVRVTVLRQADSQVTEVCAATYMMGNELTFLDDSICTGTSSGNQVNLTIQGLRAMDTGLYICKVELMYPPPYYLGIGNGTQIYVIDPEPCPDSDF

B2: 4-E03 hIgG1 (anti-human CTLA-4, human IgG1) (antibody, V domains shown)
VH: EVQLLESGGGLVQPGGSLRLSCAASGFTFSDYYMSWVRQAPGKGLEWVSGISWSSRDKGYADSVKGRFTISRDNSKNTLYLQMNSLRAEDTAVYYCTTDLARYWGQGTLVTVSS
VL: QSVLTQPPSASGTPGQRVTISCTGSSSNIGAGYDVHWYQQLPGTAPKLLIYGNDNRPSGVPDRFSGSKSGTSASLAISGLRSEDEADYYCAVWDDSLNGVVFGGGTKLTVLG
notes: Human IgG1 lambda, recombinant (HEK 293 EBNA); also called 4-E03 IgG1; anti-hCTLA-4 (4-E03)
IC50 (read off the curve) [5]: ~400 pM | Kd [6]: 600 pM | binding result [7]: no binding (tested: about 20 nM) | binding result [8]: binds | EC50 (read off the curve) [9]: ~300 pM | Kd [10]: 400 pM | EC50 (read off the curve) [11]: ~4000 pM | EC50 (read off the curve) [12]: ~6000 pM | EC50 (read off the curve) (cmCTLA-4): ~300 pM | IC50 (read off the curve) [13]: ~1000 pM

B4: ipilimumab (antibody, V domains shown)
VH: QVQLVESGGGVVQPGRSLRLSCAASGFTFSSYTMHWVRQAPGKGLEWVTFISYDGNNKYYADSVKGRFTISRDNSKNTLYLQMNSLRAEDTAIYYCARTGWLGPFDYWGQGTLVTVSS
VL: not shown
EC50 (read off the curve) (cmCTLA-4): ~200 pM

More lines, now with the values ahead:

EC50 (read off the curve) [1]: ~700 pM | EC50 (read off the curve) [2]: ~0.8 µg/mL | IC50 (read off the curve) [3]: ~2000 pM | IC50 (read off the curve) [4]: ~600 pM
B1: 5-B07 mIgG2a (anti-mouse CTLA-4, mouse IgG2a) (antibody, V domains shown)
VH: EVQLLESGGGLVQPGGSLRLSCAASGFTFSSYSMNWVRQAPGKGLEWVSAISGSGGSTYYADSVKGRFTISRDNSKNTLYLQMNSLRAEDTAVYYCARDRVEMNQWLADWGQGTLVTVSS
VL: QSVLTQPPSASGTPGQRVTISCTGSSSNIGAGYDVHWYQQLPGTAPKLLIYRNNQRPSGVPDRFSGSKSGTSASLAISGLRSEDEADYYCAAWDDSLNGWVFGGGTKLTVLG
notes: The protein in the assay lacks the signal peptide; also called anti-mCTLA-4 (5-B07); mouse surrogate antibody 5-B07 mIgG2a

IC50 (read off the curve) [5]: ~400 pM | IC50 (read off the curve) [13]: ~1000 pM
B3: 2-C06 (anti-human CTLA-4 antibody clone) (antibody, human IgG1, V domains shown)
VH: EVQLLESGGGLVQPGGSLRLSCAASGFTFSSYAMSWVRQAPGKGLEWVSGISGSGGYIHYADSVKGRFTISRDNSKNTLYLQMNSLRAEDTAVYYCATYSSGLHDAFDIWGQGTLVTVSS
VL: B2 VL with G52D, D54N, N55K, V92A, V100W
notes: Tested as human IgG1 (lambda light chain)

Reference: patent US20240374719A1 (BIOINVENT INTERNATIONAL, published 2024)
